Molecular target: HA-CXCR4-RLuc3 (UniProt P61073)
Test: FRET or BRET

Sequence of UniProt P61073 (P61073 whole entry): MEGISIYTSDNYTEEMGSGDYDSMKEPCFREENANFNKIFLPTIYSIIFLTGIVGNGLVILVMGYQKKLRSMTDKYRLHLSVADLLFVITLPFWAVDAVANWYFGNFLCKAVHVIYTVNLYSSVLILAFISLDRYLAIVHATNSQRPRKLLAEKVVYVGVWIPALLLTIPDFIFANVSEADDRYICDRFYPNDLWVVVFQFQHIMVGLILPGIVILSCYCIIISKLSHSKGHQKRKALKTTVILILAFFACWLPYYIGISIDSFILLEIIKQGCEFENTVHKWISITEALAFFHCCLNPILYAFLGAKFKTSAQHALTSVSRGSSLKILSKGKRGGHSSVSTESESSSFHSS

Row | Kd of BRET acceptor saturation (x axis: acceptor gMFI) | Substance
1 | 7.1 | mVenus-miniGαs/i WT
2 | 13.4 | mVenus-mini-Gαs/i(Y320F)
3 | 16.7 | mVenus-miniGαs/i(Y320E)
